Molecular target: transcription elongation complex
Experiment: single-molecule fluorescence co-localization

ka (apparent first-order association rate constant at 0.5 nM GreB): 0.0149 s⁻¹
B1: GreB (natural protein)
chain: MKTPLVTREGYEKLKQELNYLWREERPEVTKKVTWAASLGDRSENADYQYNKKRLREIDRRVRYLTKCLENLKIVDYSPQQEGKVFFGAWVEIENDDGVTHRFRIVGYDEIFGRKDYISIDSPMARALLKKEVGDLAVVNTPAGEASWYVNAIEYVKP
modifications: fluorescent dye label: Cy3 (Figure 5) or Cy3B (Figure 6); position not stated
